Where a chain is given by its changes, count along the chain named. Names may count otherwise. Square brackets hold non-standard residues; d marks the D form. pS = N[C@@H](COP(=O)(O)O)C(=O)O
B1: Nonphosphorylated peptide NPP (peptide)
peptide: Ac-CLTNENPFSDPIKQKF-NH2
B2: Phosphopeptide PP2 (peptide)
peptide: Ac-CTNENPF[pS]DPIKQKF-NH2
SMILES: CC[C@H](C)[C@H](NC(=O)[C@@H]1CCCN1C(=O)[C@H](CC(=O)O)NC(=O)[C@H](COP(=O)(O)O)NC(=O)[C@H](Cc1ccccc1)NC(=O)[C@@H]1CCCN1C(=O)[C@H](CC(N)=O)NC(=O)[C@H](CCC(=O)O)NC(=O)[C@H](CC(N)=O)NC(=O)[C@@H](NC(=O)[C@H](CS)NC(C)=O)[C@@H](C)O)C(=O)N[C@@H](CCCCN)C(=O)N[C@@H](CCC(N)=O)C(=O)N[C@@H](CCCCN)C(=O)N[C@@H](Cc1ccccc1)C(N)=O
B3: S780D GST-Kex2p C-tail fusion protein (domain or fragment, yeast, UniProt P13134 700-814, looked up)
chain: KSRRRIRRSRAETYEFDIIDTDSEYDSTLDNGTSGITEPEEVEDFDFDLSDEDHLASLSSSENGDAEHTIDSVLTNENPFDDPIKQKFPNDANAESASNKLQELQPDVPPSSGRS
B4: WT GST-Kex2p C-tail fusion protein (domain or fragment, yeast, UniProt P13134 700-814, looked up)
chain: B3 chain with D81S
B5: Gga2p VHS-GAT-His6 (domain or fragment, yeast, UniProt P38817 1-336, looked up)
chain: MSHPHSHSIYLSELPVRKPQALGNPLLRKIQRACRMSLAEPDLALNLDIADYINEKQGAAPRDAAIALAKLINNRESHVAIFALSLLDVLVKNCGYPFHLQISRKEFLNELVKRFPGHPPLRYSKIQRLILTAIEEWYQTICKHSSYKNDMGYIRDMHRLLKYKGYAFPKISESDLAVLKPSNQLKTASEIQKEQEIAQAAKLEELIRRGKPEDLREANKLMKIMAGFKEDNAVQAKQAISSELNKLKRKADLLNEMLESPDSQNWDNETTQELHSALKVAQPKFQKIIEEEQEDDALVQDLLKFNDTVNQLLEKFNLLKNGDSNAASQIHPSHVS

Key:
[1] = molecular target: S780A GST-Kex2p C-tail fusion protein (yeast) (UniProt P13134); experiment: ITC
[2] = molecular target: S780A GST-Kex2p C-tail fusion protein (yeast) (UniProt P13134); experiment: pull-down
Gga2p VHS-GAT-His6 [3] = molecular target: B5; experiment: pull-down
Gga2p VHS-GAT-His6 [4] = molecular target: B5; experiment: ITC
[5] = molecular target: B3; experiment: pull-down

Molecule	binding result (Gga2p VHS-GAT-His6 [3])	Kd (Gga2p VHS-GAT-His6 [4]) [µM]	further results
Gga2p VHS-GAT-His6 (from UniProt P38817 1-336) (domain or fragment)			Kd [1]: 400 µM; fold lower binding than the WT tail [2]: 2 fold; t1/2 of dissociation [2]: 40 min
B1	binds		
B2	binds		
B3		6.6	
B4		10	
B5			fold higher binding than the WT tail [5]: 2 fold

Source: paper PMC3571872 (Molecular Biology of the Cell, 2013)
